Data as given in patent US20040220079.

Tests used:
[1] = target: Native proteins
[2] = target: T1, synthetic peptide derived from the APP beta-secretase site containing the Swedish mutation (SEVNL/DAEFR)
T1 chain: SEVNLDAEFR

[3] = target: T2, synthetic peptide PS1-gamma (LVNMAEGD)
T2 chain: LVNMAEGD

[4] = target: oxidized bovine insulin B chain, P01317
[5] = target: T3, peptide derived from the processing site of presenilin 1 (SVNM/AEGD)
T3 chain: SVNMAEGD

[6] = target: T4, synthetic peptide derived from the APP beta-secretase site (SEVKM/DAEFR)
T4 chain: SEVKMDAEFR

[7] = target: T5, synthetic peptide Nch (VGSGVLLSRK)
T5 chain: VGSGVLLSRK

oxidized bovine insulin B chain, P01317, sequence (P01317 25-54): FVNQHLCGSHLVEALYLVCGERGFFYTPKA

B1: M2pd (modified M2 containing amino acids from Ala-8p to Ala326) (protein)
chain: TQHGIRLPLRSGLGGAPLGLRLPRETDEEPEEPGRRGSFVEMVDNLRGKSGQGYYVEMTVGSPPQTLNILVDTGSSNFAVGAAPHPFLHRYYQRQLSSTYRDLRKGVYVPYTQGKWEGELGTDLVSIPHGPNVTVRANIAAITESDKFFINGSNWEGILGLAYAEIARPDDSLEPFFDSLVKQTHVPNLFSLQLCGAGFPLNQSEVLASVGGSMIIGGIDHSLYTGSLWYTPIRREWYYEVIIVRVEINGQDLKMDCKEYNYDKSIVDSGTTNLRLPKKVFEAAVKSIKAASSTEKFPDGFWLGEQLVCWQAGTTPWNIFPVISLYLMGEVTNQSFRITILPQQYLRPVEDVATSQDDCYKFAISQSSTGTVMGAVIMEGFYVVFDRARKRIGFAVSACHVHDEFRTAAVEGPFVTLDMEDCGYNIPQTDESTLMTIAYVMAAICALFMLPLCLMVCQWRCLRCLRQQHDDFADDISLLK
Question: Which results are given for B1?
Answer: cleavage of proteins [1]: Native proteins were not cleaved by M2pd; Km [2]: Km, 1 mM; fold increase of kcat/Km over native APP [2]: 60-fold increase of kcat/Km over that for native APP; kcat [2]: kcat, 2.45 s^-1; kcat/Km [2]: kcat/Km, 2450 s^-1M^-; hydrolytic sites [3]: A single cleavage site was observed in synthetic peptide PS1-gamma; hydrolytic sites [4]: 2 sites; Km [5]: Km, 15.2 mM; kcat [5]: kcat, 0.67 s^-1; kcat/Km [5]: kcat/Km, 43.8 s^-1M^-1; kcat/Km [6]: kcat/Km, 39.9 s^-1M^-1; hydrolytic sites [7]: 3 sites
